Measurements: PMC2778870, “The Crystal Structures of Yeast Get3 Suggest a Mechanism for Tail-Anchored Protein Membrane Insertion” (PLoS ONE, 2009)

What was measured:
D. hansenii Get3 = target: T1, D. hansenii Get3 (Debaryomyces hansenii, UniProt Q6BSM0); experiment: X-ray crystallography, […] A, co-crystallization; details: 2 mM ADP, 1 mM MgCl2, 5 mM KCl, 0.2 M ammonium mono-basic phosphate, 20% glycerol; nucleotide-binding domain, closed dimer
T1 construct: recombinant, expressed and purified; homo-dimer; finger domain not visible in electron density
T1 sequence (Q6BSM0 1-348): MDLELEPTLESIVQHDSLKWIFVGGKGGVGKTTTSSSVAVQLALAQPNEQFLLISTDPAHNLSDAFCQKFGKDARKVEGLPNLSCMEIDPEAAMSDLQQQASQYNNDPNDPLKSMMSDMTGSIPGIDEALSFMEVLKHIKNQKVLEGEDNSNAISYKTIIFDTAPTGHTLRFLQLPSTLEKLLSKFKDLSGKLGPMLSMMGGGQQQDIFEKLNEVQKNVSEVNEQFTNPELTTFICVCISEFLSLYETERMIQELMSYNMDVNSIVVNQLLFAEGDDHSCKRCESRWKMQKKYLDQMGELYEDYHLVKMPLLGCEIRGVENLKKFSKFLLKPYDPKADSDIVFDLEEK

[1] = target: the molecule itself; experiment: crystal structure; S. cerevisiae Get3, nucleotide-free, 2.3 Å; hanging drop, 100 mM MES pH 6.0, PEG 3350 15%, 0.2 M ammonium sulfate; two monomers in the asymmetric unit
[2] = target: the molecule itself; experiment: crystal structure; D. hansenii Get3 with ADP, 1.8 Å; hanging drop, 0.2 M ammonium mono-basic phosphate, 20% glycerol, 1 mM MgCl2, 5 mM KCl, 2 mM ADP

Nc1ncnc2c1ncn2[C@@H]1O[C@H](COP(=O)(O)OP(=O)(O)O)[C@@H](O)[C@H]1O [ADP]
X-ray crystallography, 1.8 A, co-crystallization (D. hansenii Get3): The bound ADP molecule can be clearly identified in the Get3 nucleotide-binding domain (NBD)

B1: S. cerevisiae full-length Get3 (enzyme, UniProt Q12154 1-354, looked up)
chain: MDLTVEPNLHSLITSTTHKWIFVGGKGGVGKTTSSCSIAIQMALSQPNKQFLLISTDPAHNLSDAFGEKFGKDARKVTGMNNLSCMEIDPSAALKDMNDMAVSRANNNGSDGQGDDLGSLLQGGALADLTGSIPGIDEALSFMEVMKHIKRQEQGEGETFDTVIFDTAPTGHTLRFLQLPNTLSKLLEKFGEITNKLGPMLNSFMGAGNVDISGKLNELKANVETIRQQFTDPDLTTFVCVCISEFLSLYETERLIQELISYDMDVNSIIVNQLLFAENDQEHNCKRCQARWKMQKKYLDQIDELYEDFHVVKMPLCAGEIRGLNNLTKFSQFLNKEYNPITDGKVIYELEDKE
notes: Get3 (Arr4) ATPase, S. cerevisiae, full length; in the crystal residues 191-210 (molecule A) and 93-116 (molecule B) are not seen; Se-Met protein was used for phasing only; One Zn ion is held between the two monomers; also called ScGet3; Arr4; source: E. coli, purified (Ni-chelating column, gel-filtration column)
stoichiometry N [1]: 2

B2: D. hansenii Get3 (enzyme)
chain: MDLELEPTLESIVQHDSLKWIFVGGKGGVGKTTTSSSVAVQLALAQPNEQFLLISTDPAHNLSDAFCQKFGKDARKVEGLPNLSCMEIDPEAAMSDLQQQASQYNNDPNDPLKSMMSDMTGSIPGIDEALSFMEVLKHIKNQKVLEGEDNSNAISYKTIIFDTAPTGHTLRFLQLPSTLEKLLSKFKDLSGKLGPMLSMMGGGQQQDIFEKLNEVQKNVSEVNEQFTNPELTTFICVCISEFLSLYETERMIQELMSYNMDVNSIVVNQLLFAEGDDHSCKRCESRWKMQKKYLDQMGELYEDYHLVKMPLLGCEIRGVENLKKFSKFLLKPYDPKADSDIVFDLEEK
notes: Get3 ATPase of the yeast D. hansenii (Debaryomyces hansenii); finger domain not seen in the electron density; Crystallised with ADP and Mg; also called DhGet3; source: expressed and purified
stoichiometry N [2]: 2
